Values quoted from earlier work in publication PMC8541618.
pKd: −log10 of the molar value. Read-outs that look alike come from different tables or passages of the source.

What was measured:
[1] = molecular target: VanRA (Enterococcus faecium) (UniProt Q06239)
[2] = molecular target: VanRA (Enterococcus faecium) (UniProt Q06239); remark: listed apart in the source

Sequence of UniProt Q06239 (Q06239 whole entry): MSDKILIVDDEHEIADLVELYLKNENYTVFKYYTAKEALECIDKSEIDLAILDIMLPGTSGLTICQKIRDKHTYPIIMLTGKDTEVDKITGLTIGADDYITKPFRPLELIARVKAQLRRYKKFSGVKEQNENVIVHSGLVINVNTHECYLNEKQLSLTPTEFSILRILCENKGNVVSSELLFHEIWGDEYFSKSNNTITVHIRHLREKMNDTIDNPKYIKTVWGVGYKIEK

Substance: VanSA (from UniProt Q06240)
- pKd [1]: 5.72

Substance: VanSA cytosolic portion (from UniProt Q06240)
- pKd [2]: 5.17
